# Data reported in the supplement of paper PMC10567573.
# B1: TMEM192 (parent)
# chain: ILGKVILWILHLLLECYIQYHHSK
# Variants of: B1
# Assay: protein stability index of a GFP-peptide fusion (GPS, HEK-293T) (PSI 1-6); higher = more stable
# Conditions: c terminus: a fixed tail appended
# 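Further: lentivirally expressed fusions sorted by FACS into six bins by GFP to DsRed ratio, PSI derived from sequencing read proportions per bin multiplied by bin number.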
row,Variant,protein stability index
1,ILGKVILWILHLLLECYIQCHHSK,3.13
2,ILGKVILWILHLLLECYIQNHHSK,2.5
3,ILGKVILWILHLLLECYIQGHHSK,2.11
4,ILGKVILWILHLLLECYIQVHHSK,3.38
5,ILGKVILWILHLLLECYIQHHHSK,1.97
6,ILGKVILWILHLLLECYIQQHHSK,4.39
7,ILGKVILWILHLLLECYIQKHHSK,2.51
8,ILGKVILWILHLLLECYIQRHHSK,1.94
9,ILGKVILWILHLLLECYIQAHHSK,2.9
10,ILGKVILWILHLLLECYIQLHHSK,3.1
11,ILGKVILWILHLLLECYIQPHHSK,3.57
12,ILGKVILWILHLLLECYIQSHHSK,3.62
13,ILGKVILWILHLLLECYIQFHHSK,1.26
14,ILGKVILWILHLLLECYIQWHHSK,2.22
15,ILGKVILWILHLLLECYIQMHHSK,3.73
16,ILGKVILWILHLLLECYIQDHHSK,2.2
17,ILGKVILWILHLLLECYIQTHHSK,4.2
18,ILGKVILWILHLLLECYIQEHHSK,3.48
19,ILGKVILWILHLLSECYIQYHHSK,2.43
20,ILGKVILWILHLLQECYIQYHHSK,2.28
21,ILGKVILWILHLLFECYIQYHHSK,2.75
22,ILGKVILWILHLLTECYIQYHHSK,3.98
23,ILGKVILWILHLLGECYIQYHHSK,3.05
24,ILGKVILWILHLLMECYIQYHHSK,2.95

row,Variant,protein stability index
1,ILGKVILWILHLLCECYIQYHHSK,2.25
2,ILGKVILWILHLLPECYIQYHHSK,3.38
3,ILGKVILWILHLLYECYIQYHHSK,3.51
4,ILGKVILWILHLLNECYIQYHHSK,3.68
5,ILGKVILWILHLLIECYIQYHHSK,3.72
6,ILGKVILWILHLLEECYIQYHHSK,3.72
7,ILGKVILWILHLLRECYIQYHHSK,2.71
8,ILGKVILWILHLLWECYIQYHHSK,1.68
9,ILGKVILWILHLLDECYIQYHHSK,3.16
10,ILGKVILWILHLLVECYIQYHHSK,4.41
11,ILGKVILWILHLLKECYIQYHHSK,2.31
12,ILGKVILWILHLLHECYIQYHHSK,3.19
13,ILGKVILWILHLLAECYIQYHHSK,2.08
14,ILGKVILWIPHLLLECYIQYHHSK,3.36
15,ILGKVILWIVHLLLECYIQYHHSK,2.85
16,ILGKVILWISHLLLECYIQYHHSK,2.3
17,ILGKVILWIWHLLLECYIQYHHSK,3.83
18,ILGKVILWIIHLLLECYIQYHHSK,3.22
19,ILGKVILWIKHLLLECYIQYHHSK,1.75
20,ILGKVILWITHLLLECYIQYHHSK,2.19
21,ILGKVILWINHLLLECYIQYHHSK,3.04
22,ILGKVILWIMHLLLECYIQYHHSK,3.36
23,ILGKVILWIRHLLLECYIQYHHSK,1.98
24,ILGKVILWILHLLLECYIQYDHSK,4.02

row,Variant,protein stability index
1,ILGKVILWILHLLLECYIQYEHSK,3
2,ILGKVILWILHLLLECYIQYFHSK,3.45
3,ILGKVILWILHQLLECYIQYHHSK,4.15
4,ILGKVILWILHSLLECYIQYHHSK,3.61
5,ILGKVILWILHYLLECYIQYHHSK,2.14
6,ILGKVILWILHKLLECYIQYHHSK,2.69
7,ILGKVILWILHMLLECYIQYHHSK,2.29
8,ILGKVILWILHELLECYIQYHHSK,3.21
9,ILGKVILWILHTLLECYIQYHHSK,3.88
10,ILGKVILWILHHLLECYIQYHHSK,2.19
11,ILGKVILWILHFLLECYIQYHHSK,2.47
12,ILGKVILWILHGLLECYIQYHHSK,3.98
13,ILGKVILWILHRLLECYIQYHHSK,2.87
14,ILGKVILWILHWLLECYIQYHHSK,3.59
15,ILGKVILWILHDLLECYIQYHHSK,3.31
16,ILGKVILWILHNLLECYIQYHHSK,3.52
17,ILGKVILWILHPLLECYIQYHHSK,3.07
18,ILGKVILWILHVLLECYIQYHHSK,2.88
19,ILGKVILWILHALLECYIQYHHSK,3
20,ILGKVILWILHLLLECYKQYHHSK,3.4
21,ILGKVILWILHLLLECYGQYHHSK,2.71
22,ILGKVILWILHLLLECYPQYHHSK,2.44
23,ILGKVILWILHLLLECYLQYHHSK,3.64
24,ILGKVILWILHLLLECYHQYHHSK,2.59

row,Variant,protein stability index
1,ILGKVILWILHLLLECYTQYHHSK,2.31
2,ILGKVILWILHLLLECYQQYHHSK,3.46
3,ILGKVILWILHLLLECYRQYHHSK,2.36
4,ILGKVILWILHLLLECYFQYHHSK,3.01
5,ILGKVILWILHLLLECYMQYHHSK,2.03
6,ILGKVILWILHLLLECYCQYHHSK,2.4
7,ILGKVILWILHLLLECYEQYHHSK,2.99
8,ILGKVILWILHLLLECYDQYHHSK,2.61
9,ILGKVILWILHLLLECYNQYHHSK,1.48
10,ILGKVILWILHLLLECYSQYHHSK,2.74
11,ILGKVILWILHLLLECYWQYHHSK,3.7
12,ILGKVILWILHLLLECYVQYHHSK,3.96
13,ILGKVILWILHLLLECYYQYHHSK,2.24
14,ILGKVILWILHLLLECYAQYHHSK,4.65
15,ILGKVILWILHLLLECYITYHHSK,2.57
16,ILGKVILWILHLLLECYIRYHHSK,2.9
17,ILGKVILWILHLLLECYIGYHHSK,3.15
18,ILGKVILWILHLLLECYIHYHHSK,2.44
19,ILGKVILWILHLLLECYIAYHHSK,2.58
20,ILGKVILWILHLLLECYIIYHHSK,2.76
21,ILGKVILWILHLLLECYIDYHHSK,3.64
22,ILGKVILWILHLLLECYINYHHSK,2.91
